From article PMC11144216

Molecular target: diffusible Aβ aggregates from postmortem frontal cortex of AD patients (human (endogenous in postmortem frontal cortex))
Assay: single-molecule pull-down (SiMPull); soaked-brain extracts (neat) of frontal cortex of APOE4/4 and APOE3/3 AD patients; captured by biotinylated 6E10; detected with Alexa-Fluor-647 6E10 and Alexa-Fluor-488 EPR19392; two-colour TIRF, colocalisation

Row | percent of Aβ aggregates that are co-aggregates (colocalisation by number) [%] | Substance
1 | 1 | apoE3 in frontal-cortex extracts of homozygous APOE3 AD patients (from UniProt P02649 19-317) (natural protein)
2 | 5 | apoE4 in frontal-cortex extracts of homozygous APOE4 AD patients (from UniProt P02649 19-317) (natural protein)
